# Results: US20200353062A1, “PHARMACEUTICAL COMPOSITIONS, METHODS FOR PREPARATION COMPRISING SIZING OF LIPID VESICLE PARTICLES, AND USES THEREOF” (IMMUNOVACCINE TECHNOLOGIES INC., priority 2017, published 2020)
# Several values for one entry are separate records, joined by “and”; a condition that tells them apart may be missing. Equal values may be shown once. Where no end group is shown, it is not given here. [ ]: non-standard residue; d: D form. Met(O) = CS(=O)CC[C@H](N)C(=O)O
# Legend:
# [1] = Peptide assay and peptide impurities by RP-HPLC; type: physicochemical; conditions: for Peptide Impurities by RP-HPLC (% Area) / Peptide Content by RP-HPLC: compositions from sized lipid vesicle particles
# Protocol: Identification and quantification of peptides was performed using a reversed-phase HPLC (RP-HPLC) method. The method utilizes an Agilent 1100 Series HPLC system equipped with a Phenomenex Luna 5 μm C8(2) column. The mobile phase is a gradient of 16-37% (v/v) acetonitrile in 0.1% (v/v) aqueous trifluoroacetic acid. Column temperature is maintained at 50° C., and UV-PDA detection is performed at 215 nm. The assay may also be used to identify peptide impurities. The tests were validated to the extent required for a phase 1/2 clinical phase study (data not included).
# [2] = Lipid assay and degradant limit test by RP-HPLC; conditions: for Lipid Impurities (HPLC) / Lipid Impurities (RP-HPLC): % of DOPC area; for Lipid Impurities (RP-HPLC): solubilized Batch #4 in vials, room temperature
# [3] = compositions from sized lipid vesicle particles, Average (n = 5)
# [4] = compositions from sized lipid vesicle particles, individual Vial 1-5
# [5] = sized-vesicle preparation stored at 5° C. ± 3° C., 0 months
# [6] = sized-vesicle preparation stored at 5° C. ± 3° C., 3 months
# [7] = sized-vesicle preparation stored at 5° C. ± 3° C., 6 months
# [8] = sized-vesicle preparation stored at 5° C. ± 3° C., 9 months
# [9] = sized-vesicle preparation stored at 5° C. ± 3° C., 12 months
# [10] = sized-vesicle preparation stored at 5° C. ± 3° C., 18 months
# [11] = sized-vesicle preparation stored at −20° C. ± 5° C., 0 months
# [12] = sized-vesicle preparation stored at −20° C. ± 5° C., 6 months
# [13] = sized-vesicle preparation stored at −20° C. ± 5° C., 12 months
# [14] = sized-vesicle preparation stored at −20° C. ± 5° C., 18 months
# [15] = solubilized Batch #4 in syringe, t = 60 min
Compound,Peptide Content by RP-HPLC ([1]; Average (n = 5)),Peptide Content by RP-HPLC ([1]; individual Vial 1-5),"Peptide Assay (RP-HPLC) [1, 5]","Peptide Assay (RP-HPLC) [1, 6]","Peptide Assay (RP-HPLC) [1, 7]","Peptide Assay (RP-HPLC) [1, 8]","Peptide Assay (RP-HPLC) [1, 9]","Peptide Assay (RP-HPLC) [1, 10]","Peptide Assay (RP-HPLC) [1, 11]","Peptide Assay (RP-HPLC) [1, 12]","Peptide Assay (RP-HPLC) [1, 13]","Peptide Assay (RP-HPLC) [1, 14]",further results
RRT 3.66 LMLGEFLKL (M oxidized to sulfoxide; SEQ ID NO: 2): peptide impurity: LMLGEFLKL with M oxidized to sulfoxide (L[Met(O)]LGEFLKL),–,–,–,–,–,–,–,–,–,–,–,–,Peptide Impurities by RP-HPLC (% Area) ([1]; Average (n = 5)): 0.55%; Peptide Impurities by RP-HPLC (% Area) ([1]; individual Vial 1-5): 0.65% and 0.40% and 0.53% and 0.58% and 0.57%
"CC(C)CCC[C@@H](C)[C@H]1CC[C@H]2[C@@H]3CC=C4C[C@@H](O)CC[C@]4(C)[C@H]3CC[C@]12C [Cholesterol, cholesterol]",–,–,–,–,–,–,–,–,–,–,–,–,"Lipid Content by RP-HPLC [2, 3]: 11.36 mg/mL; Lipid Content by RP-HPLC [2, 4]: 11.20 mg/mL and 11.62 mg/mL and 11.48 mg/mL and 11.44 mg/mL and 11.05 mg/mL; Lipid Assay (RP-HPLC) [2, 5]: 11.03 mg/mL; Lipid Assay (RP-HPLC) [2, 6]: 11.30 mg/mL; Lipid Assay (RP-HPLC) [2, 7]: 12.26 mg/mL; Lipid Assay (RP-HPLC) [2, 8]: 12.11 mg/mL; Lipid Assay (RP-HPLC) [2, 9]: 12.00 mg/mL; Lipid Assay (RP-HPLC) [2, 10]: 12.25 mg/mL; Lipid Assay (RP-HPLC) [2, 11]: 11.03 mg/mL; Lipid Assay (RP-HPLC) [2, 12]: 12.14 mg/mL; Lipid Assay (RP-HPLC) [2, 13]: 11.10 mg/mL; Lipid Assay (RP-HPLC) [2, 14]: 12.85 mg/mL"
"STFKNWPFL (Survivin HLA-A24) [SurA24, survivin peptide antigen [HLA-A24]]",0.93 mg/mL,0.92 mg/mL and 0.94 mg/mL and 0.93 mg/mL and 0.91 mg/mL and 0.95 mg/mL,1.00 mg/mL,0.98 mg/mL,0.98 mg/mL,0.95 mg/mL,0.95 mg/mL,0.99 mg/mL,1.00 mg/mL,0.99 mg/mL,0.97 mg/mL,1.00 mg/mL,–
"LPPAWQPFL (Survivin HLA-B7) [SurB7, survivin peptide antigen [HLA-B7]]",1.09 mg/mL,1.07 mg/mL (2×) and 1.11 mg/mL (2×) and 1.08 mg/mL,1.09 mg/mL,1.01 mg/mL,1.00 mg/mL,1.00 mg/mL,0.99 mg/mL,1.03 mg/mL,1.09 mg/mL,1.01 mg/mL,1.01 mg/mL,1.03 mg/mL,–
"RISTFKNWPK (Survivin HLA-A3 (modified)) [SurA3.K, survivin peptide antigen [HLA-A3], added after sizing]",0.89 mg/mL,0.86 mg/mL and 0.90 mg/mL and 0.91 mg/mL and 0.88 mg/mL and 0.92 mg/mL,1.04 mg/mL,0.99 mg/mL,0.93 mg/mL,0.92 mg/mL,0.93 mg/mL,1.02 mg/mL,1.04 mg/mL,0.98 mg/mL,0.97 mg/mL,1.02 mg/mL,loss in content from the nominal target limit in the final bulk ([1]; peptide combined with lipid mixture before size extrusion (retained by extruder membrane)): approximately 25%
"CCCCCCCC/C=C\CCCCCCCC(=O)O [Oleic Acid, oleic acid]",–,–,–,–,–,–,–,–,–,–,–,–,"DOPC degradants by RP-HPLC [2, 4]: 0.60 mg/mL and 0.50 mg/mL; Lipid Degradants (RP-HPLC) [2, 5]: 0.3 mg/mL; Lipid Degradants (RP-HPLC) [2, 6]: 0.2 mg/mL; Lipid Degradants (RP-HPLC) [2, 7]: 0.2 mg/mL; Lipid Degradants (RP-HPLC) [2, 8]: 0.4 mg/mL; Lipid Degradants (RP-HPLC) [2, 9]: 0.2 mg/mL; Lipid Degradants (RP-HPLC) [2, 10]: 0.2 mg/mL; Lipid Degradants (RP-HPLC) [2, 11]: 0.3 mg/mL; Lipid Degradants (RP-HPLC) [2, 12]: 0.3 mg/mL; Lipid Degradants (RP-HPLC) [2, 13]: 0.2 mg/mL; Lipid Degradants (RP-HPLC) [2, 14]: 0.3 mg/mL; DOPC degradants by RP-HPLC [2, 15]: 0.60 mg/mL"
"CCCCCCCC/C=C\CCCCCCCC(=O)OC[C@H](COP(=O)([O-])OCC[N+](C)(C)C)OC(=O)CCCCCCC/C=C\CCCCCCCC [DOPC, 1,2-Dioleoyl-sn-glycero-3-phosphocholine]",–,–,–,–,–,–,–,–,–,–,–,–,"Lipid Content by RP-HPLC [2, 3]: 119.03 mg/mL; Lipid Content by RP-HPLC [2, 4]: 117.39 mg/mL and 121.44 mg/mL and 120.26 mg/mL and 120.00 mg/mL and 116.07 mg/mL; Lipid Assay (RP-HPLC) [2, 5]: 118.41 mg/mL; Lipid Assay (RP-HPLC) [2, 6]: 112.91 mg/mL; Lipid Assay (RP-HPLC) [2, 7]: 124.60 mg/mL; Lipid Assay (RP-HPLC) [2, 8]: 130.11 mg/mL; Lipid Assay (RP-HPLC) [2, 9]: 120.00 mg/mL; Lipid Assay (RP-HPLC) [2, 10]: 121.35 mg/mL; Lipid Assay (RP-HPLC) [2, 11]: 118.41 mg/mL; Lipid Assay (RP-HPLC) [2, 12]: 123.60 mg/mL; Lipid Assay (RP-HPLC) [2, 13]: 102.63 mg/mL; Lipid Assay (RP-HPLC) [2, 14]: 128.00 mg/mL"
CCCCCCCC/C=C\CCCCCCCC(=O)O[C@H](COC(=O)CCCCCCCCCCCCCCC)COP(=O)([O-])OCC[N+](C)(C)C [POPC],–,–,–,–,–,–,–,–,–,–,–,–,"Lipid Impurities (HPLC) ([2]; solubilized Batch #4 in syringe, t = 0): 2.10%; Lipid Impurities (HPLC) ([2]; solubilized Batch #4 in syringe, t = 30 min): 2.91%; Lipid Impurities (HPLC) [2, 15]: 2.94%; Lipid Impurities (RP-HPLC) ([2]; t = 0): 2.65%; Lipid Impurities (RP-HPLC) ([2]; t = 4 h): 1.21%; Lipid Impurities (RP-HPLC) ([2]; t = 24 h): 1.04%; Lipid Impurities (% Area) [2, 3]: 2.65%; Lipid Impurities (% Area) [2, 4]: 2.79% and 2.62% and 2.63% and 2.61% and 2.59%"
"FTELTLGEF (Survivin HLA-A1 (modified)) [SurA1.T, survivin peptide antigen [HLA-A1]]",1.09 mg/mL,1.07 mg/mL (2×) and 1.10 mg/mL and 1.09 mg/mL and 1.11 mg/mL,1.03 mg/mL,1.02 mg/mL,1.03 mg/mL,1.02 mg/mL,0.97 mg/mL,1.07 mg/mL,1.03 mg/mL,1.04 mg/mL,0.99 mg/mL,1.04 mg/mL,–
"LMLGEFLKL (Survivin HLA-A2 (modified)) [SurA2.M, survivin peptide antigen [HLA-A2]]",1.14 mg/mL,1.11 mg/mL and 1.14 mg/mL (2×) and 1.15 mg/mL and 1.18 mg/mL,0.95 mg/mL,0.91 mg/mL,0.91 mg/mL,0.89 mg/mL,0.88 mg/mL,0.91 mg/mL,0.95 mg/mL,0.92 mg/mL,0.89 mg/mL,0.91 mg/mL,–
